The values below come from paper PMC10705477 (bioRxiv, 2023).

Data set [1] deals with the molecule itself. In words: cryo-EM structure.
Data set [2] deals with the molecule itself. In words: co-purification on an anion-exchange column.

B1: γ protein of the E. coli clamp loader, truncated form (residues 1–373) (domain or fragment)
chain: MSYQVLARKWRPQTFADVVGQEHVLTALANGLSLGRIHHAYLFSGTRGVGKTSIARLLAKGLNCETGITATPCGVCDNCREIEQGRFVDLIEIDAASRTKVEDTRDLLDNVQYAPARGRFKVYLIDEVHMLSRHSFNALLKTLEEPPEHVKFLLATTDPQKLPVTILSRCLQFHLKALDVEQIRHQLEHILNEEHIAHEPRALQLLARAAEGSLRDALSLTDQAIASGDGQVSTQAVSAMLGTLDDDQALSLVEAMVEANGERVMALINEAAARGIEWEALLVEMLGLLHRIAMVQLSPAALGNDMAAIELRMRELARTIPPTDIQLYYQTLLIGRKELPYAPDRRMGVEMTLLRALAFHPRMPLPEPEVPRQ
B1: the binding result in data set [1] is reported as “binds”.

B2: γ-K141A (domain or fragment)
chain: MSYQVLARKWRPQTFADVVGQEHVLTALANGLSLGRIHHAYLFSGTRGVGKTSIARLLAKGLNCETGITATPCGVCDNCREIEQGRFVDLIEIDAASRTKVEDTRDLLDNVQYAPARGRFKVYLIDEVHMLSRHSFNALLATLEEPPEHVKFLLATTDPQKLPVTILSRCLQFHLKALDVEQIRHQLEHILNEEHIAHEPRALQLLARAAEGSLRDALSLTDQAIASGDGQVSTQAVSAMLGTLDDDQALSLVEAMVEANGERVMALINEAAARGIEWEALLVEMLGLLHRIAMVQLSPAALGNDMAAIELRMRELARTIPPTDIQLYYQTLLIGRKELPYAPDRRMGVEMTLLRALAFHPRMPLPEPEVPRQ
For B2, the binding result in data set [2] is reported as “binds”.
